Data: patent US20240368642A1, “COMPOSITIONS AND METHODS FOR PRODUCTION OF VALUE-ADDED CHEMICALS” (Solugen, Inc., priority 2021, published 2024)
Values after ≈ are worked out from the molar mass of the structure shown. Blank lines part the entries; values can stand above or below the molecule they belong to.

What was measured:
[1] = Glucarate dehydratase reaction with gluconate or glucuronate as substrate; type: biochemical; conditions: 0.01% w/v GlucD, 10 mM substrate, pH 7.5, 24 hours
Experimental: (§1) A 100 μL volume was prepared containing 0.01% w/v Escherichia coli glucarate dehydratase (GlucD), 10 mM substrate (glucarate, gluconate, or glucuronate), 50 mM potassium phosphate, pH 7.5, 5 mM MgSO4, and 100 mM NaCl. The reaction was allowed to proceed for 24 hours and consumption of glucaric acid was monitored via LCMS at 0, 5mins, 20 mins, 1 hr, 2 hrs, and 24 hours. Full conversion of glucarate was observed within 20 minutes. […] The reaction is schematized in FIG. 36 and the results are graphed in Figure

[2] = Glucarate dehydratase reaction on glucarate monitored via LCMS; type: biochemical; conditions: pH 7.5
Experimental: as §1
To determine optimal enzyme loading, a 100 μL volume was prepared containing 0.001, 0.002, 0.005, or 0.01% w/v glucarate dehydratase (GlucD), 10% w/v glucarate, 50 mM potassium phosphate, pH 7.5, 5 mM MgSO4, and 100 mM NaCl. The reaction was allowed to proceed for 74 hours and formation of 4-deoxy-5-keoglucarate and consumption of glucarate was monitored via reverse phase LCMS. […] The reaction is schematized in FIG. 36 and the results are graphed in FIG. 40.

[3] = test system: APB (Acid Producing Bacteria); test: Microtiter MIC study, acid producing bacteria; type: cell-based, Acid Producing Bacteria isolated from the produced fluids; conditions: 24 hours of incubation; concentration based on initial GDA concentration
Experimental: (§2) All three different heat incubated GDA samples were tested as antimicrobial agents with several different industrially relevant bacteria. The General Aerobic Bacteria isolated and used for this testing were identified as Pseudomonas aeruginosa and Enterobacter aggolomerans. Wild strain Sulfate Reducing Bacteria and Acid Producing Bacteria isolated from the produced fluids was also used. They were placed in a microtiter plate, where a high throughput test can be performed to determine MIC (minimum inhibitor concentration). Samples were tested at the following doses (1000, 500, 250, 125, 62.5, 31.2, 15.6, 7.8, 3.9, and 1.95ppm) and concentration was calculated based on the initial GDA concentration (15 w/v %).
(§3) The antimicrobial testing results shown in FIG. 49 summarizes the MIC of each sample for different bacteria.

[4] = test system: General Wild Strain Bacteria; test: Microtiter MIC study, general wild strain bacteria; type: cell-based, Pseudomonas aeruginosa and Enterobacter aggolomerans; conditions: 24 hours of incubation; concentration based on initial GDA concentration
Experimental: as §2, §3

[5] = Specific activity of pyranose oxidase (POX) enzymes; type: biochemical; conditions: Table 4; unit = 1 umol of substrate consumed min^−1
Excerpt: POX is a flavin-dependent enzyme found in lignocellulose-degrading fungi that oxidizes glucose to 2-ketoglucose concomitantly with hydrogen peroxide formation. Recombinant Trametes hirsuita POX is currently used in the food industry for baking, providing some evidence that the enzyme can be produced at low cost. A unit is defined as 1 umol of substrate consumed min^−1. Based on an in-house empirical evaluation, the Irpex lacteus, Trametes multicolor, and Phanerochaete chrysosporium POXs have sufficient starting activity. This is presented graphically in FIG. 32 and Table 4.

[6] = Table 4; previously characterized POX enzymes; cited from earlier work
[7] = test system: all three bacteria tested; test: Antimicrobial testing, statement for all three bacteria tested; type: cell-based
Experimental: as §2, §3

- reaction with gluconic or glucuronic acid as substrate [1]: No reaction was observed
Molecule: GlucD: Escherichia coli glucarate dehydratase
- time to full conversion of glucarate ([2]; 0.005% enzyme, 10% w/v glucarate): ≤ 24 h
- time to full conversion of glucarate ([2]; 0.01% w/v GlucD, 10 mM glucarate): ≤ 0.333 h

Molecule: O=CCCCC=O [Glutaraldehyde - 50%, Glutaraldehyde]
- MIC [3]: 500 µg/mL (≈ 4.99 mM)
- MIC [4]: 1000 µg/mL (≈ 9.99 mM)

Molecule: Trametes multicolor: POX enzyme of Trametes multicolor
- Specific Activity (in-house evaluation) [5]: 6.8 (in-house U mg^−1

Molecule: Irpex lacteus: POX enzyme of Irpex lacteus
- Specific Activity (previously characterized) [6]: evaluation), 86 U mg^−1
- Specific Activity (in-house evaluation) [5]: 6.0 (in-house U mg^−1

Molecule: Oc1ccc(O)c(O)c1O (single isomer, unassigned) [1,2,3,4-tetrahydroxybenzene]
- antimicrobial activity (in words) [7]: good antimicrobial activity

B1: Lyophyllum shimeji: POX enzyme of Lyophyllum shimeji (protein, UniProt Q75ZP8 1-618, looked up)
Pyranose 2-oxidase: MSLSTEQMLRDYPRSMQINGQIPKNAIHETYGNDGVDVFIAGSGPIGATYAKLCVEAGLRVVMVEIGAADSFYAVNAEEGTAVPYVPGYHKKNEIEFQKDIDRFVNVIKGALQQVSVPVRNQNVPTLDPGAWSAPPGSSAISNGKNPHQREFENLSAEAVTRGVGGMSTHWTCSTPRIHPPMESLPGIGRPKLSNDPAEDDKEWNELYSEAERLIGTSTKEFDESIRHTLVLRSLQDAYKDRQRIFRPLPLACHRLKNAPEYVEWHSAENLFHSIYNDDKQKKLFTLLTNHRCTRLALTGGYEKKIGAAEVRNLLATRNPSSQLDSYIMAKVYVLASGAIGNPQILYNSGFSGLQVTPRNDSLIPNLGRYITEQPMAFCQIVLRQEFVDSVRDDPYGLPWWKEAVAQHIAKNPTDALPIPFRDPEPQVTTPFTEEHPWHTQIHRDAFSYGAVGPEVDSRVIVDLRWFGATDPEANNLLVFQNDVQDGYSMPQPTFRYRPSTASNVRARKMMADMCEVASNLGGYLPTSPPQFMDPGLALHLAGTTRIGFDKATTVADNNSLVWDFANLYVAGNGTIRTGFGENPTLTSMCHAIKSARSIINTLKGGTDGKNTGEHRNL
- Specific Activity (previously characterized) [6]: 1.92 U mg^−1
